From publication doi:10.1101/2021.04.08.21254942
pKd: −log10 of the molar value.

Target: TAMRA-labeled M9-NLS of hnRNPA2 WT peptide (human)
Test: fluorescence polarisation

“Karyopherin-β2 WT (from UniProt Q92973 1-898) (receptor)” gave a pKd of 7.02.
